Experiment in all cases: cell_activity
Holding throughout (conditions): yeast, partner ZFN7264; host on 0-bp gap = 1.00

For series [1], the system named is ZFN7263 (host, center linker TGSQKP) (synthetic).
Series [2] has as its system ZFN7263 linker TGGGGSQKP (synthetic).
Series [3] relates to ZFN7263 linker TPLCQRPMKQKP (synthetic).
Series [4] concerns ZFN7263 linker TPNRCPPTKP (synthetic).
Series [5] relates to ZFN7263 linker TPRPPIPKP (synthetic).
Series [6] relates to ZFN7263 linker TQRPQIPPKP (synthetic).
Series [7] relates to ZFN7263 linker TYPRPLLAKP (synthetic).

This is an account of results in patent US20110287512.

With “ACTCTGATTGGAAG (double strand) [7263 yeast half-site gap AT]”, the activity (normalized MEL-1) was found to be 0.02 in series [1]; 0.02 in series [2]; 0.01 in series [3]; 0.03 in series [4]; 0.03 in series [5]; 0.02 in series [6]. In addition, the activity (normalized MEL-1) in series [7] came out at 0.05.

Regarding “ACTCTGCTTGGAAG (double strand) [7263 yeast half-site gap CT]”, the activity (normalized MEL-1) is 0.08 in series [1]; 0.04 in series [2]; 0.03 in series [3]; 0.06 in series [4]; 0.04 in series [5]; 0.03 in series [6]. The activity (normalized MEL-1) in series [7] is 0.05.
